Measured values reported in the DeepSol protein solubility set.

test: soluble on expression in E. coli; label from the status in PepcDB or PDB records

Sequence	soluble on expression in E. coli
MGSDKIHHHHHHMYLKGDFHIHTNASDGKYTPEKVLELAKTAGINILAITDHDTTSSVKKAIAVGNELGIKVLPGIELSTLKNGESIHILGYFRDISYENKDFQNFLTEMQNYRVWRAKKIVENLDTYFNIKLDYASILKEASNVIARPHIARAILAKGYNYTYEYIFNNILNKESPAYIPNKKVSVEEGIKLLKAANAVVVLAHPVLIKKTPIEDFLKLDFDGIEAIYPMNSESDTERFLSLAKIYNKLVTAGSDFHTDDSSDTKHGRIGEIYLDENNIDILLSK	not soluble
MTRTNYQKKRMTCPVETEDITYRRKKIKGRRQAILAQFEPELVHHELIGDSCTCPDCHGTLTEIGSVVQRQELVFIPAQLKRINHVQHAYKCQTCSDNSLSDKIIKAPVPKAPLAHSLGSASIIAHTVHQKFTLKVPNYRQEEDWNKLGLSISRKEIANWHIKSSQYYFEPLYDLLRDILLSQEVIHADETSYRVLESDTQLTYYWTFLSGKHEKKGITLYHHDKRRSGLVTQEVLGDYSGYVHCDMHGAYRQLEHAKLVGCWAHVRRKFFEATPKQADKTSLGRKGLVYCDKLFALEAEWCELPPQERLVKRKEILTPLMTTFFDWCREQVVLSGSKLGLAIAYSLKHERTFRTVLEDGHIVLSNNMAERAIKSLVMGRKNWLFSQSFEGAKAAAIIMSLLETAKRHGLNSEKYISYLLDRLPNEETLAKREVLEAYLPWAKKVQTNCQ	not soluble
YCICNQVSYGEMVGCDNQDCPIEWFHYGCVGLTEAPKGKWYCPQCTAAMKRRGSRHK	soluble
MKIGVFDSGVGGLSVLKSLYEARLFDEIIYYGDTARVPYGVKDKDTIIKFCLEALDFFEQFQIDMLIIACNTASAYALDALRAKAHFPVYGVIDAGVEATIKALHDKNKEILVIATKATIKSEEYQKRLLSQGYTNINALATGLFVPMVEEGIFEGDFLQSAMEYYFKNITTPDALILACTHFPLLGRSLSKYFGDKTKLIHSGDAIVEFLKERENIDLKNHKAKLHFYASSDVESLKNTAKIWLNLLRK	not soluble
MVKFIESELILLKKEVDEMWTLVYNQLDRAGEAVMTLDKELAQQVMVRERRVNAFELKIDSDIEDIIALYNPVAIDLRFVLAMLKINTNLERLGDFAEGIARFVIRCKEPVLDADLLARLRLGEMQAEVLSMLELAKRALNEENIEMATAVFGKDNLLDDINAEATGILADYIREHPETAHTCVDLVGVFRKLERSGDHITNIAEEIVFFIDAKVLKHSGKVDENYPKS	not soluble
NKDFEWSTTGTFSLNSNKLISLSGSIFKSDYDYFNTGTVEYSGQVADSHRVQVGESIGNFYGFKVVDVDSEGRWIYEDRNGELVNYKDFTHAPEDKHVIGNGLPKWYAGWNNTLRYKNFDLNVTMRGAFGFQIINGGRMNYENVKNSRFENRLKSVNDLVFGKHTLSPEVEPEFNSYYVEDGDYWKIDNITLGYSFGQVGKYIKSLRIYGSVLNALTITGYKGIDPEVSTDGLTPGYDTRDRYPSVRSFTFGVNVKF	not soluble
MTQELGPLARTLSMPYYDDALPAHDQFHAKRVRDIALRLAGDCNGSVDRDVLAASAWLHDIGRPRERAGEIDDHDDWATAEAAQLLAAEGVKPDRIGRIKHCIQAHSIRTSSPEPRTLEAKLLFDADKLDAAGARGLVRLACIVGERSGRTGEKYAVIDDTSATDLGTSNSPDIELLRDWAQERLDTLYTQPGRRLGQTRREFMDEFFTHFAGEIGASGEWLEHHHHHH	not soluble
MHSGDFMSVSTPTRDDFAALLEESFASNDLAEGYVAKGIVTAIEKDVAIVDVGLKVEGRVPLKEFGAKSKDGTLKVGDEVEVYVERIENALGEAVLSREKARREESWVKLEAKFEAGERVEGVIFNQVKGGFTVDLDGAVAFLPRSQVDIRPIRDVTPLMHNPQPFEILKMDKRRGNIVVSRRTVLEESRAEQRSEIVQNLEEGQVVDGVVKNITDYGAFVDLGGIDGLLHVTDMAWRRVNHPSEILNIGQQVKVQIIRINQETHRISLGMKQLESDPWDGISAKYPVGKKISGTVTNITDYGAFVELEPGIEGLIHISEMSWTKKNVHPGKILSTSQEVDVVVLEVDPSKRRISLGLKQTLENPWQAFAFSHPAGTEVEGEVKNKTEFGLFIGLEGDVDGMVHLSDLDWNRPGEQVIEEFNKGDVVKAVVLDVDVEKERISLGIKQLGKDAVGEAATSGDLRKNAVVSCEVIAVNDGGVEVKLVNHEDITSFIRRNDLARDRDDQRPERFAVGQVFDARVVNFSKKDRKVMLSIKALEIAEEKEAVAQFGSSDSGASLGDILGAALKNRGELEHHHHHH	soluble
MLSVIIITKNEEANIRRCLESVHFADEIIVLDSGSTDNTLAIAREYTDKVFSTDWQGYGIQKDRALQKAQGDWVLNLDADESVSSELRQEILQAISSDTADAFRIPIQMIFYNQVLKYSGSPKRHIRLFKRENASYSKDIVHEKVLIPVNARVGKLKKPIWHHSFSDVHHVLYKLNKYSSYSAKIRIESNEKVGLVKTFFSALWMFVRCLFLQKGFLDGRAGFLFAVFGAQGAFYRGVKQIYKDRDINKLPSVNHIKEELEHHHHHH	soluble
EDPSLDRPFISEGTTLKDLIYDMTTSGSGSGLPLLVQRTIARTIVLQESIGKGRFGEVWRGKWRGEEVAVKIFSSREERSWFREAEIYQTVMLRHENILGFIAADNKDNGTWTQLWLVSDYHEHGSLFDYLNRYTVTVEGMIKLALSTASGLAHLHMEIVGTQGKPAIAHRDLKSKNILVKKNGTCCIADLGLAVRHDSATDTIDIAPNHRVGTKRYMAPEVLDDSINMKHFESFKRADIYAMGLVFWEIARRCSIGGIHEDYQLPYYDLVPSDPSVEEMRKVVCEQKLRPNIPNRWQSCEALRVMAKIMRECWYANGAARLTALRIKKTLSQLSQQEGIKM	soluble
MAHHHHHHMEAPTDNDSMQAGPVVVGHADGVLTMPSEDFASLHLQPIQDDTWIRNAEIVHMENFVETEDGKRIKREILKEYVEEKERQGTFHPDPILEGMIYQEKFMEAYRTNGRSVDADKAHSYRLKLLETHRRARAIENADT	not soluble
QKNPDSYNGAVRENYTWSQDYTDLEVRVPVPKHVVKGKQVSVALSSSSIRVAMLEENGERVLMEGKLTHKINTESSLWSLEPGKCVLVNLSKVGEYWWNAILEGEEPIDID	soluble
MNDNLYSLIEQRILVLDGAMGTMIQRHGLDEQDYRGERFASHDHPLKGNNDLLVITRPDIIRSIHCDFLDAGADIIETCTFNANPISQSDYQLQDLTRELNVAAAKIARSAADEFTAKTPDKPRFVAGSIGPTNKTLSLSPDVNNPGFRAVTFQEMVDNYTAQLEGLHEGGVDLLLVETVFDTLNCKAALYAIEEYAVKTGWQVPVMVSGTVVDASGRTLSGQTTEAFWISISHMPSLLSVGLNCALGSKQMRPFIEALSNIAESYVSVYPNAGLPNEFGEYDDSPEYMAAQIAGFAESGFVNIVGGCCGTTPTHIRAIAEAVKTLPPRKRPANKHVLRLSGLEPLVVDETTGFINVGERTNVTGSRKF	not soluble
MSLSTLLISAPHLAFKIIATGVSLPPDRVESSTLDRKLNKPVGYVEQRSGVRHRYHATADANQAELAAAALHDALERHGINPSSIDLLISASAIAYQALPCTAVHILKIAGLAPRIAGFDINSSCVSFISALQVAAGLLNAGTYQRIAIVSADLASRGIDWNDEESSLIFGDGAACAIVERGDGRSGILASLVEMYPTGSELCEIRAGGTRCNPRSGMDNDDFLFHMQGKRLFRQASGIIEDYFQRLLEKSGLTLADIATVIPHQASHLSLAHMRKRLHVPTDVLVDIYRDHGNQVAASIPTALHAAVMSGRFSPGKPVMLIGTAAGLTLAGMVLLEGHHHHHH	not soluble
MPPIPEPEIDPVLKELLYAYSVISRARRYAGMAGVPLPLSLTEINEYLATHPVLIERDEFEAVIFALDDQYFQEQCV	not soluble
MSLKILVYGINYSPELTGIGKYTGEMVAWMAQEGHEVRVITAPPYYPQWKVGERYSAWRYRWEEGEATVWRCPLYVPKQPSTLKRLLHLGSFALSSFFPLMAQRRWKPDRIIGVVPTLFCTPGMRLLATLSGARTVLHIQDYEVDAMLGLGMAGKGKRGSVARLATAFERSALRNVDNVSTISRSMMNKAREKGVAAEKILFFPNWSEVARFQDVNDADVTALRQQLGLPEGKKIVLYSGNIGEKQGLEKVIDAAERLRDRPLIFAIVGQGGGKARMENMARERGLANIKFLPLQPYDALPALLKMGDCHLVVQKRGAADAVLPSKLTNILAVGGNAVITAEPHTELGQLCARYPGIAVCVEPESTDALVDGISQALAMPKNNMTAREYAERTLNKENVLRQFIADIRGEGHHHHHH	soluble
MAHHHHHHMPSFFPSMPPCDRAAMLTVCEARRQYLAAHVTQLYANTNPAELWSSIVKYRERNSTELLDTVNSYDELRLSYSGYRKVVYSLVFRVSPEEEKQASVEERESRKKLYFNHPFLSPATFLAFPRAEDGTIPAVPMYAFAAKRLLLYRMRVELELVARVLPPSLQDPATRVTHRLLCPPSSSSPLSNGLTQEDIEAFLYDLLPNLRLVRDMPPWMQPYYLCHASRKFMFMCDTRRTGAISIESMMKSDVFSELLRVFESDANDAIVVFTKGCTVDVAASLVTADAAEDDTIPALVLFHEGEGNNQDDMYIVKTLTDGVVLEVRRGQLYWNSGSTEFLQPDVLCMDNWFSLALMARIYEHFTSLDIDGDGVLTVDELSRYSDGSFTRLVIERAFECHVPHSGKRHIMDYKTYLDFVIATEHAATLPAMKYIWSILDLEENRKFVTVETLRCFCKAIANELIANGLMTDISAQSILSEVIDMINPKWHEWVELDDIVRSGHQATVLPILLSYRNFYAYDCREQTAAAANDEYA	not soluble
MYETIVSSRGSSFFVSQGKTGEQVYRCQVNREQCPNTLPIDKHIDLVRKYIRAFLYRFAGMTSLNETSSRRMIFLVVPSFCVIEIIP	not soluble
MTATQGKCPVMHGGATTVNISTAEWWPKALNLDILSQHDRKTNPMGPDFNYQEEVQKLDAALKQDLQALMTDSQDWWPADWGHYGGLMIRLTWHAAGTYRIADGRGGAGTGNQRFAPLNSWPDNTNLDKARRLLWPIKQKYGNKLSWADLIAYAGTIAYESMGLKTFGFAFGREDIWHPEKDIYWGPEKEWFPPSTNPNSRYTGDRELENPLAAVTMGLIYVNPEGVDGNPDPLKTAHDVRVTFARMAMNDEETVALTAGGHTVGKCHGNGNAALLGPEPEGADVEDQGLGWINKTQSGIGRNAVTSGLEGAWTPHPTQWDNGYFAVCSLNYDWELKKNPAGAWQWEPINPREEDLPVDVEDPSIRRNLVMTDADMAMKMDPEYRKISERFYQDPAYFADVFARAWFKLTHRDMGPKARYIGPDVPQEDLIWQDPIPAGNRNYDVQAVKDRIAASGLSISELVSTAWDSARTYRNSDKRGGANGARIRLAPQKDWEGNEPDRLPKVLAVLEGISAATGATVADVIVLAGNVGVEQKARAAGVEIVLPFAPGRGDATAEQTDTESFAVLEPIHDAIATGSSRTMRQRLKNCCLIATQLLGLTAPEMTVLIGGLRVLGTNHGGTKHVVFTDREGVLTNDFFVNLTDMNYLWKPAGKNLYEICDRKTNQVKWTATRVDLVFGSNSILRAYSELYAQDDNKEKFVRDFVAAWTKVMNADRFDLD	soluble
TGRGVKYWFCYGTKCYYFIMNKTTWSGCKANCQHYSVPIVKIEDEDELKFLQRHVIPEGYWIGLSYDKKKKEWAWIDNGPSKFDMKIRKMNFKSRGCVFLSKARIEDTDCNIPYYCICGKKLDKFPD	soluble
